For four molecules, Kd results are on record in publication PMC10500007.

The target in assay [1] is T1, human integrin αvβ6 (soluble, construct not stated), P06756;P18564.
T1 chain 1: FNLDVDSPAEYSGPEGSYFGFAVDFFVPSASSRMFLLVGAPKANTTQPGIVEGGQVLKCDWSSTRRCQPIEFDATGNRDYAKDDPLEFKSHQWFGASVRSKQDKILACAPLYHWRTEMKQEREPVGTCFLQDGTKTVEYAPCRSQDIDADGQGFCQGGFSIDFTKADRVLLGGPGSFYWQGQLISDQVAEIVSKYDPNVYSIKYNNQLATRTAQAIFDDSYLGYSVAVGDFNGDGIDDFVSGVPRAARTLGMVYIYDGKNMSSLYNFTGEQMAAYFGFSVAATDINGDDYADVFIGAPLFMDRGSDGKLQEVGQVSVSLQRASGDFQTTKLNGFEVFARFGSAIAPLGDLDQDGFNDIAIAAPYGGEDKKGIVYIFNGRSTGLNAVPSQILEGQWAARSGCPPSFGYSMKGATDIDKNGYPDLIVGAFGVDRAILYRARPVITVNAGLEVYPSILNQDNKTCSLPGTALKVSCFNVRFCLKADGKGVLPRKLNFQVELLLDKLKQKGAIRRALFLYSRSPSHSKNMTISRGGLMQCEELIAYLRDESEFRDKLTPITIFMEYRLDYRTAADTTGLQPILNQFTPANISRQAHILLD
T1 chain 2: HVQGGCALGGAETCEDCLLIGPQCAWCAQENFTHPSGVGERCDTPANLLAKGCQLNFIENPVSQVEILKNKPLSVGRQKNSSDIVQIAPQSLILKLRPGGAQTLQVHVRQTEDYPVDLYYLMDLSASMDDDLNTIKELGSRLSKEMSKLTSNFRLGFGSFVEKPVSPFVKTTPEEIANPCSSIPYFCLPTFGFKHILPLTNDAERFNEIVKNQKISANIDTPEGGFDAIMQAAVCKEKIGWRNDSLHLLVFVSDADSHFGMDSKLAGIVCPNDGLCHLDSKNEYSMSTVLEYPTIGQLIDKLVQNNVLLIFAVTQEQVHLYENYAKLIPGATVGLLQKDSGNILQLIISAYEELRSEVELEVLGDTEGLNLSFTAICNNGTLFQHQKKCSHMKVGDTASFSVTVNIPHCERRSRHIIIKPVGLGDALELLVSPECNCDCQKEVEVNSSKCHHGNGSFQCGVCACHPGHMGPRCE
Briefly: BLI. Particulars: chain shown with the change;; parent: > 1000 nM.

Assay [2] addresses T2, human integrin αvβ8 (soluble, construct not stated), P06756;P26012.
T2 chain 1: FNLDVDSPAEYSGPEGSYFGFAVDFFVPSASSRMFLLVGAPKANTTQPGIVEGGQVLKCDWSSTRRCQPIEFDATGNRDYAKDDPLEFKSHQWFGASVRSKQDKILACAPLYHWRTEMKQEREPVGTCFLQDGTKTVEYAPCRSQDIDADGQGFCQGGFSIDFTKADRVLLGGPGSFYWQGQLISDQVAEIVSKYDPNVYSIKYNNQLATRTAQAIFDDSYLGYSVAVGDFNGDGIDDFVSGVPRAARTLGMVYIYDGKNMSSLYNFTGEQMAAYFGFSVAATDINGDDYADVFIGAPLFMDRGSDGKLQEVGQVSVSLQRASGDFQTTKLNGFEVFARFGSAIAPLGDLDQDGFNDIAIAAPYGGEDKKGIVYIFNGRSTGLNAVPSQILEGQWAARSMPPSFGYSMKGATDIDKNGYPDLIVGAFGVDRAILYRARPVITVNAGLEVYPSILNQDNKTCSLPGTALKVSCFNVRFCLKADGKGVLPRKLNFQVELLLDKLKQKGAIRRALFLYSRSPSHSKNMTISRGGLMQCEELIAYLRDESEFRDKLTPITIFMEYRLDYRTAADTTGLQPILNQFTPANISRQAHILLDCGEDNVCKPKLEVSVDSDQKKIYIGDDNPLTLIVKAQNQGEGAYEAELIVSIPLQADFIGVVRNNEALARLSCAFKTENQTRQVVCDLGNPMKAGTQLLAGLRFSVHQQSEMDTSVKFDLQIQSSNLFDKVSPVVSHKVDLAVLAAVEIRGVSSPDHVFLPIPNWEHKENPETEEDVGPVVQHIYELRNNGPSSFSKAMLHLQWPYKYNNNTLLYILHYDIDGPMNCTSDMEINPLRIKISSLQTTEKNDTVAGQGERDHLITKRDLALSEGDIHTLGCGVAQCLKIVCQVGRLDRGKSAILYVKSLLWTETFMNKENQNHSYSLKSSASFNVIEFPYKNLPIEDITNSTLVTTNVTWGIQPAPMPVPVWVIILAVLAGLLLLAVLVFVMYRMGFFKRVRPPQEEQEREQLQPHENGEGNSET
T2 chain 2: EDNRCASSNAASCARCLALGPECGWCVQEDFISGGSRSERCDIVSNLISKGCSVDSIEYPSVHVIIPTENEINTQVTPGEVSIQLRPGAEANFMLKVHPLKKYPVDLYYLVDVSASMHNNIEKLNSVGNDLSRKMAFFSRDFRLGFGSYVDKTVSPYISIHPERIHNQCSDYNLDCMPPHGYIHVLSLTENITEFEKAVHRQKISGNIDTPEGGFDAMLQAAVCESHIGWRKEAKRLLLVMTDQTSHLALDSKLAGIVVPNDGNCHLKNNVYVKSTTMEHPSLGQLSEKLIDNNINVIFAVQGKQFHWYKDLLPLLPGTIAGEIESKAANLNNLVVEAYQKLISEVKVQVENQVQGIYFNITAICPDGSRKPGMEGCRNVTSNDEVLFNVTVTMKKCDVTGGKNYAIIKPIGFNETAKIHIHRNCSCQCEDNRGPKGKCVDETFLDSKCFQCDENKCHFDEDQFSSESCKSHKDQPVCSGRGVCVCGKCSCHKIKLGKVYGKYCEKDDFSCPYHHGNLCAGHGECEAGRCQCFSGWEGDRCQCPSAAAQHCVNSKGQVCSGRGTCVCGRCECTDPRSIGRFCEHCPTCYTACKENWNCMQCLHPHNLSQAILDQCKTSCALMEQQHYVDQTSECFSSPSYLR
The assay can be described thus: BLI. Particulars: chain shown with the change;; parent: 1.9 nM.

As a reminder, the Kd is a measure of binding affinity in units of concentration.

B1: B8_BP_dslf M13L; Y16I (protein)
chain: TKCVVRFNFRGDLAVIALKAVKDHLKKEGPHWNITTHNDDEVYLVVRGIHESDAKRIAKWVESTIPGISVETQCD
With B1, the Kd in assay [1] amounted to 0.7 nM; in assay [2], 0.3 nM.

B2: B8_BP_dslf Y16I (protein)
chain: TKCVVRFNFRGDMAVIALKAVKDHLKKEGPHWNITTHNDDEVYLVVRGIHESDAKRIAKWVESTIPGISVETQCD
In the case of B2, the Kd in assay [2] turned out to be 0.2 nM.

B3: B8_BP_dslf M13L; V15T; Y16I (protein)
chain: TKCVVRFNFRGDLATIALKAVKDHLKKEGPHWNITTHNDDEVYLVVRGIHESDAKRIAKWVESTIPGISVETQCD
For B3, in assay [2], the Kd was 0.3 nM.

B4: B8_BP_dslf V15T; Y16I (protein)
chain: TKCVVRFNFRGDMATIALKAVKDHLKKEGPHWNITTHNDDEVYLVVRGIHESDAKRIAKWVESTIPGISVETQCD
On to B4, for which, in assay [2], the Kd amounted to 0.1 nM.
